The series has as its target T1, HisMBP-TZAP Znf9-11 (UniProt P10074 521-600).
T1 sequence: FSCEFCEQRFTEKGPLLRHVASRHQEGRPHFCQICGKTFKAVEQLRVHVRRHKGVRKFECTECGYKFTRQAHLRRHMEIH
The series can be described thus: EMSA. A general note: Mobility shift assays separate free from complexed probe on a gel.

Results on one molecule are retold here after paper PMC5518674.

B1: Telo6 (dsDNA)
DNA 1: GGTCGACTCTAGAGATCGAAGGGTTAGGGTTAGGGTTAGGGTTAGGGTTAGGGTTACGATCCCGGGTACCGAGCTCGA
DNA 2: TCGAGCTCGGTACCCGGGATCGTAACCCTAACCCTAACCCTAACCCTAACCCTAACCCTTCGATCTCTAGAGTCGACC
As to B1, the binding result is recorded as “binds”.
